The target of experiment [1] is T1, biotinylated recombinant human IL-12Rβ2 (human, UniProt Q99665 24-622, random biotinylated).
T1 construct: Recombinant protein produced in-house; also called hIL-12RB2; human IL-12RB2
T1 sequence: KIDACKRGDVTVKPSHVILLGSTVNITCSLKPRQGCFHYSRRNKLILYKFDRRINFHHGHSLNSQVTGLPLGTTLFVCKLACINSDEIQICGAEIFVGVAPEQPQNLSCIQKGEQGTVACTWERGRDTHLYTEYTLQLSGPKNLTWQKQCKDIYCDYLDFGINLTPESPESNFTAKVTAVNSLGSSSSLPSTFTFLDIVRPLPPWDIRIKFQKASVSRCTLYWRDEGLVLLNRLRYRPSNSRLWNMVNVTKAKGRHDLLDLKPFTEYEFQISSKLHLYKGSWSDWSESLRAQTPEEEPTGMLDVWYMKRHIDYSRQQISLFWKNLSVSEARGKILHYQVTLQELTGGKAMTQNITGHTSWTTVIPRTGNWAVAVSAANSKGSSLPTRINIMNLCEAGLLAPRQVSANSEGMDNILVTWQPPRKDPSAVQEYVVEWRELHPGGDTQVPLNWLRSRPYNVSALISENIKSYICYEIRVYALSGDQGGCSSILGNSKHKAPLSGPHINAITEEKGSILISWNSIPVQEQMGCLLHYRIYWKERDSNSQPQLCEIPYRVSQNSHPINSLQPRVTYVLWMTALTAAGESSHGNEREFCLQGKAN
Description: BLI, P.E., off-rate ranking.

Experiment [2] deals with T2, biotinylated recombinant mouse IL-12Rβ2 (mouse, UniProt P97378 24-637, random biotinylated).
T2 construct: Recombinant protein produced in-house; also called mIL-12RB2; mouse IL-12RB2
T2 sequence: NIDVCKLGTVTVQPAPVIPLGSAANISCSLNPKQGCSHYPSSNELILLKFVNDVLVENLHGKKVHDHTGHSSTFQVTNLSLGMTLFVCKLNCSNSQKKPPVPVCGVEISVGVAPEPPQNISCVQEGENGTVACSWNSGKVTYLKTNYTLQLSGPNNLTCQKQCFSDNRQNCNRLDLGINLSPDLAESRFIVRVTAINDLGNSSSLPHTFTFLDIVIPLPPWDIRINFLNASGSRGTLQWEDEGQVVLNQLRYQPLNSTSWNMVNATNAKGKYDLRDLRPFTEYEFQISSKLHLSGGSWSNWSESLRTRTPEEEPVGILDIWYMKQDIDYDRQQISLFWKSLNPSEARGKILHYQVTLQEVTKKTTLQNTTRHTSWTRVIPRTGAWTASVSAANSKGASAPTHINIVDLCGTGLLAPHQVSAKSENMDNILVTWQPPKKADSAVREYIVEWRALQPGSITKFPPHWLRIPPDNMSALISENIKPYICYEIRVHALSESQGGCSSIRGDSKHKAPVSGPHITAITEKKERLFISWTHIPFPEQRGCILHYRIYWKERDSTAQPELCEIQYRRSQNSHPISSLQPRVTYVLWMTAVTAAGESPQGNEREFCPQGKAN
The experiment is described as follows: ELISA, P.E., biotinylated antigen. (In general: ELISA stands for enzyme-linked immunosorbent assay.)

The target of experiment [3] is T1, biotinylated recombinant human IL-12Rβ2. Description: ELISA, P.E., biotinylated antigen.

One may read the koff as the first-order rate constant of dissociation.

B1: anti-IL-12Rβ2 VHH clone 3CRH14 (clone ID 20374) (VHH, not shown: small tags and cut ends)
VHH: QVQLQESGGGLVQPGGSLRLSCAASGFTFSTSGMHWFRQAPGKGLEWVSSIGIIVDSSYYADSVKGRFTISRDNAKNTLFLQMNSLKSEDTAVYYCSKDPTGSSRGQGTQVTVSS
notes: periplasmic extract
Turning to B1, in experiment [1], the Response was 0.438 and the koff is 0.00328 s⁻¹. Besides, in experiment [2], the “ELISA mIL-12RB2/control” value was 1.19. Moreover, the “ELISA hIL-12RB2/control” value in experiment [3] was 5.51.

B2: anti-IL-12Rβ2 VHH clone 3CRHS109 (clone ID 20430) (VHH, not shown: small tags and cut ends)
VHH: QVQLQESGGGLVQPGGSLRLSCAASGFTFSTSGMHWFRQAPGKGLEWVSSIGIIVDSSYYASSVKGRFTISRDNAKNTLYLHMNSLKSEDTAVYYCSKDVTGSSRGQGTQVTVSS
notes: periplasmic extract
As to B2, in experiment [1], the Response was determined as 0.745 and the koff is 0.0374 s⁻¹. Moreover, the “ELISA mIL-12RB2/control” value in experiment [2] is 1.07. Besides, in experiment [3], the “ELISA hIL-12RB2/control” value came to 3.18.

B3: anti-IL-12Rβ2 VHH clone 3CRH43 (clone ID 20382) (VHH, not shown: small tags and cut ends)
VHH: QVQLQESGGGSVQPGGSLRLSCAASGFTFSTSGMHWFRQAPGKGLEWVSSIGIIVDSSYYASSVKGRFTISRDNAKNIVYLQMNSLKSEDTAVYYCSKDPTGSSRGQGTQVTVSS
notes: periplasmic extract
Regarding B3, in experiment [1], the Response turned out to be 0.296 and the koff stood at 0.00243 s⁻¹. For the same molecule, the “ELISA mIL-12RB2/control” value in experiment [2] was 0.828. Besides, the “ELISA hIL-12RB2/control” value in experiment [3] is 4.75.

B4: anti-IL-12Rβ2 VHH clone 3CRHS128 (clone ID 20432) (VHH, not shown: small tags and cut ends)
VHH: QVQLQESGGGLVQPGGSLRLSCAASGFTFSTSGMHWFRQAPGKGLEWVSSIGATVDNSYYASSVKGRFTISRDNAKNTLYLLMNSLKSEDTAVYYCSKDPTGSSRGQGTQVTVSS
notes: periplasmic extract
Turning to B4, in experiment [1], the Response is 0.294 and the koff amounted to 0.00274 s⁻¹. Also, in experiment [2], the “ELISA mIL-12RB2/control” value came out at 0.984. Further, in experiment [3], the “ELISA hIL-12RB2/control” value was determined as 3.65.

B5: anti-IL-12Rβ2 VHH clone 3CRH45 (clone ID 20383) (VHH, not shown: small tags and cut ends)
VHH: QVQLQESGGGLVQPGGSLRLSCAASGFTFSTFGMHWFRQAPGKGLEWVSSIGIIDDNSYYASSVKGRFTISRDNAKNTLYLQMNSLKSEDTAVYYCSKDTTGSSRGQGTQVTVSS
notes: periplasmic extract
For B5, in experiment [1], the Response was found to be 0.427 and the koff came out at 0.00361 s⁻¹. Besides, in experiment [2], the “ELISA mIL-12RB2/control” value worked out at 1.39. In experiment [3], the “ELISA hIL-12RB2/control” value is 4.58.

B6: anti-IL-12Rβ2 VHH clone 3CAHS39 (clone ID 20393) (VHH, not shown: small tags and cut ends)
VHH: QVQLQESGGGLVQAGGSLRLSCAASGRTINAYIMGWFRQAPGKEREFVAAVSGSGGSTYYADSVKGRFTISRDNAKNTVNLQMDNLRSEDTDVYYCAATYESVYLQNPGQYDYWGQGTQVTVSS
notes: periplasmic extract
Take B6: in experiment [1], the Response was 0.612 and the koff came out at 0.00508 s⁻¹. Moreover, in experiment [2], the “ELISA mIL-12RB2/control” value is 1.14. Moreover, the “ELISA hIL-12RB2/control” value in experiment [3] is 4.73.

B7: anti-IL-12Rβ2 VHH clone 3CRH38 (clone ID 20381) (VHH, not shown: small tags and cut ends)
VHH: QVQLQESGGGLVQAGGSLVLSCAASGSAALIFLMSWYRQAPGKQRELVAEVSRGGSTTYADSVEGRFTISRDNAKNIVDLQMNSLKPEDTAVYYCKADQNYGDSLRSSWGRGTQVTVSS
notes: periplasmic extract
For the molecule B7, in experiment [1], the Response was 0.475 and the koff was 0.00413 s⁻¹. Besides, in experiment [2], the “ELISA mIL-12RB2/control” value came out at 1.85. In experiment [3], the “ELISA hIL-12RB2/control” value worked out at 11.8.

B8: anti-IL-12Rβ2 VHH clone 2CRH53 (clone ID 20366) (VHH, not shown: small tags and cut ends)
VHH: QVQLQESGGGLVQAGGSLVLSCAASGSAALIFLMSWYRQAPGKQRELVAEVSRYGSTTYADSVEGRFTISRDNAKDIVDLQMNSLKPEDTAVYYCKADQYYGDSLRSSWGRGTQVTVSS
notes: periplasmic extract
For B8, in experiment [1], the Response was 0.652 and the koff is 0.00598 s⁻¹. Further, in experiment [2], the “ELISA mIL-12RB2/control” value stood at 0.967. The “ELISA hIL-12RB2/control” value in experiment [3] turned out to be 5.51.

B9: anti-IL-12Rβ2 VHH clone 3CRHS2 (clone ID 20413) (VHH, not shown: small tags and cut ends)
VHH: QVQLQESGGGLVQLGGSLTLSCAASGSAALIFLMSWYRQAPGKQRELVAEVSRYGSTTYADSVEGRFTISRDNAKNIVDLQMNSLKPEDTAVYYCKADQYYGDSLRSSWGRGTQVTVSS
notes: periplasmic extract
With B9, in experiment [1], the Response was 0.5 and the koff was 0.00404 s⁻¹. The “ELISA mIL-12RB2/control” value in experiment [2] was determined as 1.01. Moreover, the “ELISA hIL-12RB2/control” value in experiment [3] amounted to 5.59.

These data come from patent publication US20260209362A1 (VIB VZW, published 2026).
